Values joined by “and” are separate entries in the source; they are usually repeats but may differ in a detail not shown here. Identical values can stand only once.
B1: FliF of the native flagellar basal body (native MS ring) (natural protein)
chain: MSATASTATQPKPLEWLNRLRANPRIPLIVAGSAAVAIVVAMVLWAKTPDYRTLFSNLSDQDGGAIVAQLTQMNIPYRFANGSGAIEVPADKVHELRLRLAQQGLPKGGAVGFELLDQEKFGISQFSEQVNYQRALEGELARTIETLGPVKSARVHLAMPKPSLFVREQKSPSASVTVTLEPGRALDEGQISAVVHLVSSAVAGLPPGNVTLVDQSGHLLTQSNTSGRDLNDAQLKFANDVESRIQRRIEAILSPIVGNGNVHAQVTAQLDFANKEQTEEHYSPNGDASKATLRSRQLNISEQVGAGYPGGVPGALSNQPAPPNEAPIATPPTNQQNAQNTPQTSTSTNSNSAGPRSTQRNETSNYEVDRTIRHTKMNVGDIERLSVAVVVNYKTLADGKPLPLTADQMKQIEDLTREAMGFSDKRGDTLNVVNSPFSAVDNTGGELPFWQQQSFIDQLLAAGRWLLVLVVAWILWRKAVRPQLTRRVEEAKAAQEQAQVRQETEEAVEVRLSKDEQLQQRRANQRLGAEVMSQRIREMSDNDPRVVALVIRQWMSNDHE
notes: source: endogenous, basal body purified from Salmonella HK1003 (sucrose density gradient); copies: 34
B2: FliF(I252R), overexpressed in E. coli (natural protein)
chain: MSATASTATQPKPLEWLNRLRANPRIPLIVAGSAAVAIVVAMVLWAKTPDYRTLFSNLSDQDGGAIVAQLTQMNIPYRFANGSGAIEVPADKVHELRLRLAQQGLPKGGAVGFELLDQEKFGISQFSEQVNYQRALEGELARTIETLGPVKSARVHLAMPKPSLFVREQKSPSASVTVTLEPGRALDEGQISAVVHLVSSAVAGLPPGNVTLVDQSGHLLTQSNTSGRDLNDAQLKFANDVESRIQRRIEARLSPIVGNGNVHAQVTAQLDFANKEQTEEHYSPNGDASKATLRSRQLNISEQVGAGYPGGVPGALSNQPAPPNEAPIATPPTNQQNAQNTPQTSTSTNSNSAGPRSTQRNETSNYEVDRTIRHTKMNVGDIERLSVAVVVNYKTLADGKPLPLTADQMKQIEDLTREAMGFSDKRGDTLNVVNSPFSAVDNTGGELPFWQQQSFIDQLLAAGRWLLVLVVAWILWRKAVRPQLTRRVEEAKAAQEQAQVRQETEEAVEVRLSKDEQLQQRRANQRLGAEVMSQRIREMSDNDPRVVALVIRQWMSNDHE
notes: source: E. coli, overexpressed, MS rings purified
B3: FliF(L253R), overexpressed in E. coli (natural protein)
chain: MSATASTATQPKPLEWLNRLRANPRIPLIVAGSAAVAIVVAMVLWAKTPDYRTLFSNLSDQDGGAIVAQLTQMNIPYRFANGSGAIEVPADKVHELRLRLAQQGLPKGGAVGFELLDQEKFGISQFSEQVNYQRALEGELARTIETLGPVKSARVHLAMPKPSLFVREQKSPSASVTVTLEPGRALDEGQISAVVHLVSSAVAGLPPGNVTLVDQSGHLLTQSNTSGRDLNDAQLKFANDVESRIQRRIEAIRSPIVGNGNVHAQVTAQLDFANKEQTEEHYSPNGDASKATLRSRQLNISEQVGAGYPGGVPGALSNQPAPPNEAPIATPPTNQQNAQNTPQTSTSTNSNSAGPRSTQRNETSNYEVDRTIRHTKMNVGDIERLSVAVVVNYKTLADGKPLPLTADQMKQIEDLTREAMGFSDKRGDTLNVVNSPFSAVDNTGGELPFWQQQSFIDQLLAAGRWLLVLVVAWILWRKAVRPQLTRRVEEAKAAQEQAQVRQETEEAVEVRLSKDEQLQQRRANQRLGAEVMSQRIREMSDNDPRVVALVIRQWMSNDHE
notes: as for B2
B4: FliF(V266R), overexpressed in E. coli (natural protein)
chain: MSATASTATQPKPLEWLNRLRANPRIPLIVAGSAAVAIVVAMVLWAKTPDYRTLFSNLSDQDGGAIVAQLTQMNIPYRFANGSGAIEVPADKVHELRLRLAQQGLPKGGAVGFELLDQEKFGISQFSEQVNYQRALEGELARTIETLGPVKSARVHLAMPKPSLFVREQKSPSASVTVTLEPGRALDEGQISAVVHLVSSAVAGLPPGNVTLVDQSGHLLTQSNTSGRDLNDAQLKFANDVESRIQRRIEAILSPIVGNGNVHAQRTAQLDFANKEQTEEHYSPNGDASKATLRSRQLNISEQVGAGYPGGVPGALSNQPAPPNEAPIATPPTNQQNAQNTPQTSTSTNSNSAGPRSTQRNETSNYEVDRTIRHTKMNVGDIERLSVAVVVNYKTLADGKPLPLTADQMKQIEDLTREAMGFSDKRGDTLNVVNSPFSAVDNTGGELPFWQQQSFIDQLLAAGRWLLVLVVAWILWRKAVRPQLTRRVEEAKAAQEQAQVRQETEEAVEVRLSKDEQLQQRRANQRLGAEVMSQRIREMSDNDPRVVALVIRQWMSNDHE
notes: as for B2
B5: FliF(L253A), overexpressed in E. coli (natural protein)
chain: MSATASTATQPKPLEWLNRLRANPRIPLIVAGSAAVAIVVAMVLWAKTPDYRTLFSNLSDQDGGAIVAQLTQMNIPYRFANGSGAIEVPADKVHELRLRLAQQGLPKGGAVGFELLDQEKFGISQFSEQVNYQRALEGELARTIETLGPVKSARVHLAMPKPSLFVREQKSPSASVTVTLEPGRALDEGQISAVVHLVSSAVAGLPPGNVTLVDQSGHLLTQSNTSGRDLNDAQLKFANDVESRIQRRIEAIASPIVGNGNVHAQVTAQLDFANKEQTEEHYSPNGDASKATLRSRQLNISEQVGAGYPGGVPGALSNQPAPPNEAPIATPPTNQQNAQNTPQTSTSTNSNSAGPRSTQRNETSNYEVDRTIRHTKMNVGDIERLSVAVVVNYKTLADGKPLPLTADQMKQIEDLTREAMGFSDKRGDTLNVVNSPFSAVDNTGGELPFWQQQSFIDQLLAAGRWLLVLVVAWILWRKAVRPQLTRRVEEAKAAQEQAQVRQETEEAVEVRLSKDEQLQQRRANQRLGAEVMSQRIREMSDNDPRVVALVIRQWMSNDHE
notes: as for B2
B6: FliF(V266A), overexpressed in E. coli (natural protein)
chain: MSATASTATQPKPLEWLNRLRANPRIPLIVAGSAAVAIVVAMVLWAKTPDYRTLFSNLSDQDGGAIVAQLTQMNIPYRFANGSGAIEVPADKVHELRLRLAQQGLPKGGAVGFELLDQEKFGISQFSEQVNYQRALEGELARTIETLGPVKSARVHLAMPKPSLFVREQKSPSASVTVTLEPGRALDEGQISAVVHLVSSAVAGLPPGNVTLVDQSGHLLTQSNTSGRDLNDAQLKFANDVESRIQRRIEAILSPIVGNGNVHAQATAQLDFANKEQTEEHYSPNGDASKATLRSRQLNISEQVGAGYPGGVPGALSNQPAPPNEAPIATPPTNQQNAQNTPQTSTSTNSNSAGPRSTQRNETSNYEVDRTIRHTKMNVGDIERLSVAVVVNYKTLADGKPLPLTADQMKQIEDLTREAMGFSDKRGDTLNVVNSPFSAVDNTGGELPFWQQQSFIDQLLAAGRWLLVLVVAWILWRKAVRPQLTRRVEEAKAAQEQAQVRQETEEAVEVRLSKDEQLQQRRANQRLGAEVMSQRIREMSDNDPRVVALVIRQWMSNDHE
notes: as for B2
B7: FliF(I252A), overexpressed in E. coli (natural protein)
chain: MSATASTATQPKPLEWLNRLRANPRIPLIVAGSAAVAIVVAMVLWAKTPDYRTLFSNLSDQDGGAIVAQLTQMNIPYRFANGSGAIEVPADKVHELRLRLAQQGLPKGGAVGFELLDQEKFGISQFSEQVNYQRALEGELARTIETLGPVKSARVHLAMPKPSLFVREQKSPSASVTVTLEPGRALDEGQISAVVHLVSSAVAGLPPGNVTLVDQSGHLLTQSNTSGRDLNDAQLKFANDVESRIQRRIEAALSPIVGNGNVHAQVTAQLDFANKEQTEEHYSPNGDASKATLRSRQLNISEQVGAGYPGGVPGALSNQPAPPNEAPIATPPTNQQNAQNTPQTSTSTNSNSAGPRSTQRNETSNYEVDRTIRHTKMNVGDIERLSVAVVVNYKTLADGKPLPLTADQMKQIEDLTREAMGFSDKRGDTLNVVNSPFSAVDNTGGELPFWQQQSFIDQLLAAGRWLLVLVVAWILWRKAVRPQLTRRVEEAKAAQEQAQVRQETEEAVEVRLSKDEQLQQRRANQRLGAEVMSQRIREMSDNDPRVVALVIRQWMSNDHE
notes: as for B2
B8: full-length Salmonella FliF (MS ring, dataset 2, from pKOT105) (natural protein)
chain: MSATASTATQPKPLEWLNRLRANPRIPLIVAGSAAVAIVVAMVLWAKTPDYRTLFSNLSDQDGGAIVAQLTQMNIPYRFANGSGAIEVPADKVHELRLRLAQQGLPKGGAVGFELLDQEKFGISQFSEQVNYQRALEGELARTIETLGPVKSARVHLAMPKPSLFVREQKSPSASVTVTLEPGRALDEGQISAVVHLVSSAVAGLPPGNVTLVDQSGHLLTQSNTSGRDLNDAQLKFANDVESRIQRRIEAILSPIVGNGNVHAQVTAQLDFANKEQTEEHYSPNGDASKATLRSRQLNISEQVGAGYPGGVPGALSNQPAPPNEAPIATPPTNQQNAQNTPQTSTSTNSNSAGPRSTQRNETSNYEVDRTIRHTKMNVGDIERLSVAVVVNYKTLADGKPLPLTADQMKQIEDLTREAMGFSDKRGDTLNVVNSPFSAVDNTGGELPFWQQQSFIDQLLAAGRWLLVLVVAWILWRKAVRPQLTRRVEEAKAAQEQAQVRQETEEAVEVRLSKDEQLQQRRANQRLGAEVMSQRIREMSDNDPRVVALVIRQWMSNDHE
notes: also called FliF overexpressed from another construct; FliF ring dataset 2; source: E. coli BL21 (DE3) carrying pKOT105, MS ring purified from the membrane fraction (sucrose gradient, LMNG); copies: 34
B9: FliF_(1-503) (domain or fragment)
chain: MSATASTATQPKPLEWLNRLRANPRIPLIVAGSAAVAIVVAMVLWAKTPDYRTLFSNLSDQDGGAIVAQLTQMNIPYRFANGSGAIEVPADKVHELRLRLAQQGLPKGGAVGFELLDQEKFGISQFSEQVNYQRALEGELARTIETLGPVKSARVHLAMPKPSLFVREQKSPSASVTVTLEPGRALDEGQISAVVHLVSSAVAGLPPGNVTLVDQSGHLLTQSNTSGRDLNDAQLKFANDVESRIQRRIEAILSPIVGNGNVHAQVTAQLDFANKEQTEEHYSPNGDASKATLRSRQLNISEQVGAGYPGGVPGALSNQPAPPNEAPIATPPTNQQNAQNTPQTSTSTNSNSAGPRSTQRNETSNYEVDRTIRHTKMNVGDIERLSVAVVVNYKTLADGKPLPLTADQMKQIEDLTREAMGFSDKRGDTLNVVNSPFSAVDNTGGELPFWQQQSFIDQLLAAGRWLLVLVVAWILWRKAVRPQLTRRVEEAKAAQEQAQVRQE
notes: also called C-terminally-truncated FliF fragment with 57 residues truncated; copies: 33

Experiments:
[1] = molecular target: FliG ΔPAA of the C ring of the CW-locked basal body (Salmonella enterica serovar Typhimurium (in TM022)) (UniProt P0A1J9); test: cryo-EM structure; end-on view cryoEM images of the C ring of purified wild-type (CCW) and CW mutant basal bodies; rotational symmetry of single particles by autocorrelation and Fourier transformation (98 and 75 particles)
[2] = molecular target: the molecule itself; test: cryo-EM structure; 2D class averages of end-on views of the basal body (rivet) purified from Salmonella HK1003; rotational symmetry by autocorrelation and Fourier transformation; assembly formed in cells, purified as a whole
[3] = molecular target: the molecule itself; test: negative-stain EM; MS rings purified from E. coli cells overexpressing mutant variants of FliF, observed by negative staining EM
[4] = molecular target: the molecule itself; test: cryo-EM structure; MS ring of full-length FliF (dataset 2, pKOT105); 3D refinement with C1, C11 and C34 symmetry (12, 9.0 and 7.4 Å)
[5] = molecular target: the molecule itself; test: cryo-EM structure; rings of FliF_(1-503) and FliF_(1-456) in Buffer S with 0.1% Triton-X100; 3D classification and reconstruction with C1 symmetry

Row | Molecule | binding result [3] | other results
1 | FliG ΔPAA of the C ring of the CW-locked basal body (from UniProt P0A1J9 1-331) (natural protein) | – | stoichiometry N [1]: 33 -fold to 36 -fold (2×) and 34 -fold
2 | B1 | – | stoichiometry N [2]: 34 subunits
3 | B2 | binds | –
4 | B3 | binds | –
5 | B4 | binds | –
6 | B5 | binds | –
7 | B6 | binds | –
8 | B7 | binds | –
9 | B8 | – | stoichiometry N [4]: 34 subunits
10 | B9 | – | stoichiometry N [5]: 33 -fold
